The term Kd denotes a measure of binding affinity in units of concentration. A word on the stoichiometry N: it is the number of molecules, sites or subunits per partner or assembly.

T1: Brr2^C-Sec63 (human, UniProt O75643 1840-2136)
T1 sequence (looked up): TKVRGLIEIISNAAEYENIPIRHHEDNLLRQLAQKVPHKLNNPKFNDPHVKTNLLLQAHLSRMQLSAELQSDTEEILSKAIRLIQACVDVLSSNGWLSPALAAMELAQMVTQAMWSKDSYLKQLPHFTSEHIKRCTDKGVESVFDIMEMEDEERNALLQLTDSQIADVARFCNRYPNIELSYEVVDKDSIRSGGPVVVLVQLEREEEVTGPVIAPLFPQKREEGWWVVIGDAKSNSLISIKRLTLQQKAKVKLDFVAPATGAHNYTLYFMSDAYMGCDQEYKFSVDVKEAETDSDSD

T2: Brr2^C-Sec63 pre-incubated with FBP21^116–376 (human | , UniProt O75643 1840-2136; O75554 116-376)
T2 sequence (looked up) 1: T1 sequence (looked up)
T2 sequence (looked up) 2: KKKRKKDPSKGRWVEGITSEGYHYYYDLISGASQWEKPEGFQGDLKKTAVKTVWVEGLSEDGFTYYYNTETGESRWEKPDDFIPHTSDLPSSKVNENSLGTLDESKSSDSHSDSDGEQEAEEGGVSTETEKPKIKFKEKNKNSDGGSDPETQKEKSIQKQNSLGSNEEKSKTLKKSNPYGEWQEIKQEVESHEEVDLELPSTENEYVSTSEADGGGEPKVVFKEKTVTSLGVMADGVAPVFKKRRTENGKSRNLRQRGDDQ

B1: FBP21^326–376 (domain or fragment, UniProt O75554 326-376, looked up)
chain: EADGGGEPKVVFKEKTVTSLGVMADGVAPVFKKRRTENGKSRNLRQRGDDQ
B2: SmB-derived peptide (peptide)
peptide: GTPMGMPPPGMRPPPPGMRGLL
B3: FBP21^276–376 (domain or fragment, UniProt O75554 276-376, looked up)
chain: NSLGSNEEKSKTLKKSNPYGEWQEIKQEVESHEEVDLELPSTENEYVSTSEADGGGEPKVVFKEKTVTSLGVMADGVAPVFKKRRTENGKSRNLRQRGDDQ
B4: peptide 58 (peptide)
peptide: GVAPVFKKRRTENGKSRNLR
B5: core binding motif of peptide 57, ^356FKKRR^360 (peptide)
peptide: FKKRR
B6: positively charged control peptide GKKRR (peptide)
peptide: GKKRR
B7: positively charged control peptide KRFKR (peptide)
peptide: KRFKR
B8: FBP21^116–376 (domain or fragment, UniProt O75554 116-376, looked up)
chain: T2 sequence (looked up) 2
B9: FBP21^116–376 pre-incubated with SmB peptide (complex)
chain: T2 sequence (looked up) 2
peptide: GTPMGMPPPGMRPPPPGMRGLL
B10: peptide 57 (peptide)
peptide: GVMADGVAPVFKKRRTENGK
B11: FBP21^200–376 (domain or fragment, UniProt O75554 200-376, looked up)
chain: HTSDLPSSKVNENSLGTLDESKSSDSHSDSDGEQEAEEGGVSTETEKPKIKFKEKNKNSDGGSDPETQKEKSIQKQNSLGSNEEKSKTLKKSNPYGEWQEIKQEVESHEEVDLELPSTENEYVSTSEADGGGEPKVVFKEKTVTSLGVMADGVAPVFKKRRTENGKSRNLRQRGDDQ
B12: FBP21^200–376 K358A/R360A (domain or fragment, UniProt O75554 200-376, looked up)
chain: B11 chain with K159A, R161A
B13: FBP21^200–376 K357E/R359E (domain or fragment, UniProt O75554 200-376, looked up)
chain: B11 chain with K158E, R160E

Substitutions are numbered along the chain they refer to. In names and notes the source's numbering stands. Where two headings read alike, the source gives them in different places.

Assay in all cases: ITC
(In general: In ITC the heat of successive injections is recorded.)

In assay [1] the target is T1, Brr2^C-Sec63.
Assay [2] deals with T2, Brr2^C-Sec63 pre-incubated with ….
Assay [3] has as its target B8.
Assay [4] concerns the target T1, Brr2^C-Sec63. This is another data set of the same source.
The target in assay [5] is T1, Brr2^C-Sec63. The source holds these as a separate data set.

The molecule B1 returned a Kd in assay [1] of 0.11 µM.

In the case of B2, the results for the Kd in assay [2] and in assay [3] were 14 ± 0.8 µM and 16.8 ± 3 µM, respectively.

As to B3, in assay [1], the affinity, expressed as Kd, was 0.298 µM and the “stoichiometry N” value was determined as 1.

B4 yielded a Kd in assay [4] of 1.34 ± 0.19 µM.

Molecule B5 displayed an equilibrium dissociation constant (Kd) in assay [1] of 20 ± 1.1 µM.

As for B6, binding in assay [1] was characterised by a dissociation constant (Kd) of 37 ± 5.99 µM.

In assay [1], B7 came in with a Kd of 27.3 ± 3.01 µM.

As to B8, binding in assay [1] was put at a Kd of 0.275 ± 0.106 µM.

Take B9: the Kd in assay [5] worked out at 0.194 ± 0.014 µM.

Take B10: in assay [1], the Kd came to 27.5 µM and the “stoichiometry N” value came out at 1.

For the molecule B11, in assay [1], binding was put at a Kd of 0.125 µM and the “stoichiometry N” value worked out at 1.

The molecule B12 came in with a dissociation constant Kd in assay [1] of 2.04 ± 0.37 µM.

B13 displayed a dissociation constant Kd in assay [1] of 27.8 ± 0.9 µM.

Source of the values: PMC5570060 (Nucleic Acids Research, 2017).
